Assay results reported in paper PMC3326351 (International Journal of Oncology, 2011).

Target: the molecule itself
Assay: non-reducing SDS-PAGE and immunoblot

B1: His-tagged MUC1-C cytoplasmic domain (domain or fragment, human, UniProt P15941 1182-1255, looked up)
chain: AVCQCRRKNYGQLDIFPARDTYHPMSEYPTYHTHGRYVPPSSTDRSPYEKVSAGNGGSSLSYTNPAVAATSANL
Does B1 bind?
Result: binds
